Assay results reported in publication PMC2793005, “Dissecting the Role of Critical Residues and Substrate Preference of a Fatty Acyl-CoA Synthetase (FadD13) of Mycobacterium tuberculosis” (PLoS ONE, 2009).

Target: the molecule itself
Assay: SEC

B1: Fatty Acyl-CoA Synthetase FadD13 (Rv3089) of Mycobacterium tuberculosis, N-terminal 6x histidine tag (enzyme)
chain: MKNIGWMLRQRATVSPRLQAYVEPSTDVRMTYAQMNALANRCADVLTALGIAKGDRVALLMPNSVEFCCLFYGAAKLGAVAVPINTRLAAPEVSFILSDSGSKVVIYGAPSAPVIDAIRAQADPPGTVTDWIGADSLAERLRSAAADEPAVECGGDDNLFIMYTSGTTGHPKGVVHTHESVHSAASSWASTIDVRYRDRLLLPLPMFHVAALTTVIFSAMRGVTLISMPQFDATKVWSLIVEERVCIGGAVPAILNFMRQVPEFAELDAPDFRYFITGGAPMPEALIKIYAAKNIEVVQGYALTESCGGGTLLLSEDALRKAGSAGRATMFTDVAVRGDDGVIREHGEGEVVIKSDILLKEYWNRPEATRDAFDNGWFRTGDIGEIDDEGYLYIKDRLKDMIISGGENVYPAEIESVIIGVPGVSEVAVIGLPDEKWGEIAAAIVVADQNEVSEQQIVEYCGTRLARYKLPKKVIFAEAIPRNPTGKILKTVLREQYSATVPK
notes: also called native FadD13; NP; not shown: His6, N-terminal, kept
- stoichiometry N: 2
